Earlier results on one substance are cited in article PMC7599994.

For the data set, the target named is HIV-1 capsid CA CTD (Human immunodeficiency virus 1) (UniProt O93182).

By Kd is commonly meant a measure of binding affinity in units of concentration. Take “HIV-1 capsid CA CTD (from UniProt O93182)”: the Kd is 10 µM.
